Assay results published in paper PMC13174313 (bioRxiv, 2026).

T1: D. melanogaster dynein light chain Tctex1 (D. melanogaster, UniProt Q94524 1-111)
T1 sequence: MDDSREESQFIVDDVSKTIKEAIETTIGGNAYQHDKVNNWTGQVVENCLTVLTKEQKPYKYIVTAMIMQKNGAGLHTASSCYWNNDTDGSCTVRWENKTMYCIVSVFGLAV

B1: D. melanogaster dynein intermediate chain ICTL (domain or fragment, UniProt Q24246 84-143, looked up)
chain: SNTQTPDASLQATVNGQSGGKKQPLNLSVYNVQATNIPPKETLVYTKQTQTTSTGGGNGD

Assays:
Assay in all cases: ITC
[1] = molecular target: TII: Tctex1 homodimer with two IC chains bound (D. melanogaster) (UniProt Q94524)
[2] = molecular target: D. melanogaster dynein light chain LC8 (D. melanogaster, UniProt Q24117 1-89)
[3] = molecular target: T1, D. melanogaster dynein light chain …

Sequence of D. melanogaster dynein light chain LC8 (D. melanogaster, UniProt Q24117 1-89) (Q24117 whole entry): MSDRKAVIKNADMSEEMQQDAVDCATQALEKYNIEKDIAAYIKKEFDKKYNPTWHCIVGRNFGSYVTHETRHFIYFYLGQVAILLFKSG

Row | Molecule | dH (TII -> TIILII) [1] | dH, first IC on the LC8 dimer (LI) [2] | dH, second IC on the LC8 dimer (LI to LII) [2] | dH, first IC on the Tctex1 dimer (TI) [3] | dH, second IC on the Tctex1 dimer (TI to TII) [3]
1 | D. melanogaster dynein light chain LC8 (from UniProt Q24117 1-89) (natural protein) | -25.8 kcal/mol | – | – | – | –
2 | B1 | – | -14.8 kcal/mol | -15.1 kcal/mol | -6.76 kcal/mol | -4.97 kcal/mol
